This is an account of results in patent US20190322748A1 (Hoffmann-La Roche, published 2019).

In one assay the target is T1, monomeric human Tim3-ECD (human, UniProt Q8TDQ0 22-202).
T1 construct: SPR analyte; also called huTim3; hu Tim3-ECD
In words: SPR Biacore T200, Ab captured on anti-human Fab IgG, hu Tim3-ECD in solution, 25 C. In general terms: In SPR one partner is held on a chip, and binding of the other changes the refractive index at the surface.

Assay [1] has as its target T2, Tim3-CLIP (on transiently transfected HEK293 cells) (human, CLIP-tag labelled with Clip-Red).
T2 construct: The plasmid encodes residues 1-202 including the signal peptide; also called CLIP-tagged TIM3
In words: cell-based TR-FRET on SNAP-tagged PD1 / CLIP-tagged TIM3 HEK293 cells, 1 h at 4 C; half-maximal FRET, i.e. simultaneous binding of both receptors, not of one arm alone.

Assay [2] deals with T3, PD1-SNAP (on transiently transfected HEK293 cells) (human, SNAP-tag labelled with SNAP-Lumi4-Tb).
T3 construct: also called SNAP-tagged PD1
The description is as above.

In assay [3] the target is T4, biotinylated PD1-ECD-AviHis (human, UniProt Q15116 25-170, biotinylated, site not stated).
T4 construct: also called huPD1; hu PD1
Kind of assay: ELISA on coated biotinylated PD1-ECD-AviHis. Background: ELISA stands for enzyme-linked immunosorbent assay.

For another assay, the target named is T5, human PD1-ECD (human, UniProt Q15116 25-170).
T5 construct: SPR analyte; also called hu PD1-ECD
Kind of assay: SPR Biacore T200, Ab captured on anti-human Fc IgG, hu PD1-ECD in solution, 25 C.

Assay [4] concerns the target T6, biotinylated TIM3-ECD-AviHis (human, UniProt Q8TDQ0 22-202, biotinylated, site not stated).
T6 construct: also called huTIM3; Hu TIM3
Kind of assay: ELISA on coated biotinylated TIM3-ECD-AviHis.

In assay [5] the target is T7, full-length human PD1 on cells (CHO-K1 stably transfected with plasmid 15311_hPD1-fl_pUC_Neo) (human, UniProt Q15116 25-288). Kind of assay: cell-based or functional assay.
Assay [6] addresses T2, Tim3-CLIP (on transiently transfected …). Kind of assay: cell-based TR-FRET (Tag-lite) on HEK293 cells co-transfected with PD1-SNAP (Lumi4-Tb) and Tim3-CLIP (Clip-Red), 1 h at 4 C; signal needs both receptors bound at once by one antibody; mean +/- SD, n=3. Background: TR-FRET usually uses a lanthanide donor and a delayed reading to cut background.
Assay [7] has as its target T3, PD1-SNAP (on transiently transfected …). The assay is described as above.
In assay [8] the target is T7, full-length human PD1 on cells (CHO-K1 …). In words: cell-based or functional assay. This is another data set of the same source.
Assay [9] shares this target. In words: cell-based or functional assay. This is another data set of the same source.
Assay [10] concerns the target T2, Tim3-CLIP (on transiently transfected …). Kind of assay: cell-based TR-FRET (Tag-lite) on HEK293 cells co-transfected with PD1-SNAP (Lumi4-Tb) and Tim3-CLIP (Clip-Red), 1 h at 4 C; signal needs both receptors bound at once by one antibody; mean +/- SD, n=3. This is another data set of the same source.
The target in assay [11] is T8, full-length human Tim3 on cells (CHO-K1 stably transfected with plasmid 15312_hTIM3-fl_pUC_Neo) (human, UniProt Q8TDQ0 22-301). Kind of assay: cell-based or functional assay.
Assay [12] has as its target T8, full-length human Tim3 on cells (CHO-K1 …). Kind of assay: cell-based or functional assay. The source holds these as a separate data set.

Like-named read-outs stand apart in the source and are kept apart here.

B1: 1+1 PD1TIM3_0168 (based on chimeric PD1-0103 / Tim3-0018) (bispecific antibody, human IgG1, kappa, L234A L235A)
heavy 1: not shown
heavy 2: QVTLKESGPGILQPSQTLSLTCSFSGFSLSTSGMSVGWIRQPSGKGLEWLAHIWLNDDVFFNPALKRRLTISKDTSNNQVFLQIASVVTADTATYYCVRANGYLYALDYWGQGISVTVSSASTKGPSVFPLAPSSKSTSGGTAALGCLVEDYFPEPVTVSWNSGALTSGVHTFPAVLQSSGLYSLSSVVTVPSSSLGTQTYICNVNHKPSNTKVDEKVEPKSCDKTHTCPPCPAPEAAGGPSVFLFPPKPKDTLMISRTPEVTCVVVDVSHEDPEVKFNWYVDGVEVHNAKTKPREEQYNSTYRVVSVLTVLHQDWLNGKEYKCKVSNKALGAPIEKTISKAKGQPREPQVCTLPPSRDELTKNQVSLSCAVKGFYPSDIAVEWESNGQPENNYKTTPPVLDSDGSFFLVSKLTVDKSRWQQGNVFSCSVMHEALHNRFTQKSLSLSPGK
light 1: EVILVESGGGLVKPGGSLKLSCAASGFSFSSYTMSWVRQTPEKRLDWVATISGGGRDIYYPDSVKGRFTISRDNAKNTLYLEMSSLMSEDTALYYCVLLTGRVYFALDSWGQGTSVTVSSASVAAPSVFIFPPSDEQLKSGTASVVCLLNNFYPREAKVQWKVDNALQSGNSQESVTEQDSKDSTYSLSSTLTLSKADYEKHKVYACEVTHQGLSSPVTKSFNRGEC
light 2: QIVLTQSPAIMSASPGQKVTITCSASSSVNYTQWYQQKLGSSPKLWIYDAFKLAPGVPARFSGSGTGTSYSLTISSMEAEDAASYFCHQWSSYPWTFGGGTKLEIKRTVAAPSVFIFPPSDRKLKSGTASVVCLLNNFYPREAKVQWKVDNALQSGNSQESVTEQDSKDSTYSLSSTLTLSKADYEKHKVYACEVTHQGLSSPVTKSFNRGEC
notes: 1+1 CrossMAb Vh-VL: HC1/LC1 form the crossed PD1 arm, HC2/LC2 the TIM3 arm; knobs into holes
Broadly, the Kd is a measure of binding affinity in units of concentration. A high value points to weaker binding. In general, EC50 (read off the curve) refers to the concentration that produces a half-maximal response. A high value points to a less potent agent. In general, EC50 refers to the concentration that produces a half-maximal response. In the case of B1, the Kd was found to be 10.3 nM with monomeric human Tim3-ECD and 1.2 nM in the assay with human PD1-ECD. Further, the “EC50 (read off the curve)” value in assay [1] and in assay [2] was roughly 0.7 nM in each case. Further, the figures for the EC50 in assay [3] and in assay [4] were 0.11 nM and 0.41 nM, respectively. Further, the “EC50 of IFN-gamma secretion in MLR, donors D2 + D6” value (from here on “EC50 … donors D2 + D6”) in assay [5] is 4.3 nM.

B2: 2+2 PD1TIM3_0359 (chimeric PD1-0103 / Tim3-0018) (bispecific antibody, human IgG1, kappa, L234A L235A)
heavy: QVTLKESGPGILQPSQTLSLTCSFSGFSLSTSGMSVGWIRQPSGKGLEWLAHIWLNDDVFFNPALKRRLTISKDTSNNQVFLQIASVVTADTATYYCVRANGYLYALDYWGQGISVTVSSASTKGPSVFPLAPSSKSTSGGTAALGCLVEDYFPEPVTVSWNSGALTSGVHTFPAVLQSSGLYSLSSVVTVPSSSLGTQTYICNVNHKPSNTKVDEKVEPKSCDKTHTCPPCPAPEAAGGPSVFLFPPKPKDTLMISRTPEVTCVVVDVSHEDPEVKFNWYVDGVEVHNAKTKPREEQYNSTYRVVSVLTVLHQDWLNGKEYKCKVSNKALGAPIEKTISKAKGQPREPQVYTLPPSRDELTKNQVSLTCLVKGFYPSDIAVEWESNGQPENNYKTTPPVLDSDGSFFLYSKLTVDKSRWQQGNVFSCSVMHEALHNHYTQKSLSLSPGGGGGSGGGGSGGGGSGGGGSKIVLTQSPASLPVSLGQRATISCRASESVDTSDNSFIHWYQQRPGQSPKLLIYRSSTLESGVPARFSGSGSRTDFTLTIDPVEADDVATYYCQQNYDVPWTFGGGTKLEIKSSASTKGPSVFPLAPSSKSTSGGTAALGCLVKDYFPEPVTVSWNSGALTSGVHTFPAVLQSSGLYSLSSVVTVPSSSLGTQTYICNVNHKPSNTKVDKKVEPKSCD
light 1: QIVLTQSPAIMSASPGQKVTITCSASSSVNYTQWYQQKLGSSPKLWIYDAFKLAPGVPARFSGSGTGTSYSLTISSMEAEDAASYFCHQWSSYPWTFGGGTKLEIKRTVAAPSVFIFPPSDRKLKSGTASVVCLLNNFYPREAKVQWKVDNALQSGNSQESVTEQDSKDSTYSLSSTLTLSKADYEKHKVYACEVTHQGLSSPVTKSFNRGEC
light 2: EVILVESGGGLVKPGGSLKLSCAASGFSFSSYTMSWVRQTPEKRLDWVATISGGGRDIYYPDSVKGRFTISRDNAKNTLYLEMSSLMSEDTALYYCVLLTGRVYFALDSWGQGTSVTVSSASVAAPSVFIFPPSDEQLKSGTASVVCLLNNFYPREAKVQWKVDNALQSGNSQESVTEQDSKDSTYSLSSTLTLSKADYEKHKVYACEVTHQGLSSPVTKSFNRGEC
notes: 2+2 CrossMAb: TIM3 IgG with a crossed PD1 Fab fused by (G4S)4 to the C-terminus of each heavy chain; also called PD1TIM3-0359 (2 + 2)
As to B2, the Kd with monomeric human Tim3-ECD turned out to be 2.3 nM; in the assay with human PD1-ECD, 1.8 nM. In addition, the EC50 in [3] worked out at 0.09 nM; in assay [4], 0.11 nM. The binding result in [6] and in assay [7] was “binds” each time.

B3: 1+1 PD1TIM3_0389 (based on chimeric PD1-0103 / Tim3-0028) (bispecific antibody, human IgG1, kappa, L234A L235A)
heavy 1: not shown
heavy 2: EVQLQQSVAELVRPGASVKLSCTASGFNIKTTYMHWVKQRPEQGLEWIGRIDPADDNTKYAPKFQGKATITADTSSNTAYLQLSSLTSEDAAIYYCVRDFGYVAWFAYWGQGTLVTFSAASTKGPSVFPLAPSSKSTSGGTAALGCLVEDYFPEPVTVSWNSGALTSGVHTFPAVLQSSGLYSLSSVVTVPSSSLGTQTYICNVNHKPSNTKVDEKVEPKSCDKTHTCPPCPAPEAAGGPSVFLFPPKPKDTLMISRTPEVTCVVVDVSHEDPEVKFNWYVDGVEVHNAKTKPREEQYNSTYRVVSVLTVLHQDWLNGKEYKCKVSNKALGAPIEKTISKAKGQPREPQVCTLPPSRDELTKNQVSLSCAVKGFYPSDIAVEWESNGQPENNYKTTPPVLDSDGSFFLVSKLTVDKSRWQQGNVFSCSVMHEALHNRFTQKSLSLSPGK
light 1: EVILVESGGGLVKPGGSLKLSCAASGFSFSSYTMSWVRQTPEKRLDWVATISGGGRDIYYPDSVKGRFTISRDNAKNTLYLEMSSLMSEDTALYYCVLLTGRVYFALDSWGQGTSVTVSSASVAAPSVFIFPPSDEQLKSGTASVVCLLNNFYPREAKVQWKVDNALQSGNSQESVTEQDSKDSTYSLSSTLTLSKADYEKHKVYACEVTHQGLSSPVTKSFNRGEC
light 2: NIVMTPTPKFLPVSSGDRVTMTCRASQSVDNYVAWYQQKPGQSPKLLIYYASNRYIGVPDRFTGSGSGTDFTFTISSVQVEDLAVYFCQQHYSSPYTFGSGTKLEIKRTVAAPSVFIFPPSDRKLKSGTASVVCLLNNFYPREAKVQWKVDNALQSGNSQESVTEQDSKDSTYSLSSTLTLSKADYEKHKVYACEVTHQGLSSPVTKSFNRGEC
notes: 1+1 CrossMAb Vh-VL: HC1/LC1 form the crossed PD1 arm, HC2/LC2 the TIM3 arm; knobs into holes; also called PD1TIM3-0389 (0357); Bispec AB 0389 (1+1)
Turning to B3, the Kd was found to be 245 nM in the assay with monomeric human Tim3-ECD and 1.3 nM with human PD1-ECD. For the same molecule, the midpoint of the response in assay [3], the EC50, lay at 0.13 nM. Further, the binding result in [6] and in assay [7] was “binds” in each case. Moreover, in assay [8], the “EC50 of IFN-gamma secretion in MLR, donors D1 + D3” value came out at 2 nM. Further, the “EC50 of IFN-gamma secretion in MLR, donors D2 + D4” value in assay [8] was found to be 1.9 nM. Moreover, the “EC50 … donors D2 + D6” value in assay [9] worked out at 2.8 nM.

B4: 1+1 PD1TIM3_0477 (based on humanized PD1-0103_0312 / Tim3-0434) (bispecific antibody, human IgG1, kappa, L234A L235A)
heavy 1: not shown
heavy 2: QITLKESGPTLVKPTQTLTLTCTFSGFSLSTSGMSVGWIRQPPGKGLEWLAHIWLNDDVFFNPALKSRLTITKDTSKNQVVLTMTNMDPVDTATYYCVRANGYLYALDYWGQGTLVTVSSASTKGPSVFPLAPSSKSTSGGTAALGCLVEDYFPEPVTVSWNSGALTSGVHTFPAVLQSSGLYSLSSVVTVPSSSLGTQTYICNVNHKPSNTKVDEKVEPKSCDKTHTCPPCPAPEAAGGPSVFLFPPKPKDTLMISRTPEVTCVVVDVSHEDPEVKFNWYVDGVEVHNAKTKPREEQYNSTYRVVSVLTVLHQDWLNGKEYKCKVSNKALGAPIEKTISKAKGQPREPQVCTLPPSRDELTKNQVSLSCAVKGFYPSDIAVEWESNGQPENNYKTTPPVLDSDGSFFLVSKLTVDKSRWQQGNVFSCSVMHEALHNHYTQKSLSLSPGK
light 1: EVQLLESGGGLVQPGGSLRLSCAASGFSFSSYTMSWVRQAPGKGLEWVATISGGGRDIYYPDSVKGRFTISRDNSKNTLYLQMNSLRAEDTAVYYCVLLTGRVYFALDSWGQGTLVTVSSASVAAPSVFIFPPSDEQLKSGTASVVCLLNNFYPREAKVQWKVDNALQSGNSQESVTEQDSKDSTYSLSSTLTLSKADYEKHKVYACEVTHQGLSSPVTKSFNRGEC
light 2: DIQLTQSPSFLSASVGDRVTITCSASSSVSYTQWYQQKPGKAPKLWIYDAFKLAPGVPSRFSGSGSGTEFTLTISSLQPEDFATYFCHQWSSYPWTFGQGTKLEIKRTVAAPSVFIFPPSDRKLKSGTASVVCLLNNFYPREAKVQWKVDNALQSGNSQESVTEQDSKDSTYSLSSTLTLSKADYEKHKVYACEVTHQGLSSPVTKSFNRGEC
notes: 1+1 CrossMAb Vh-VL: HC1/LC1 form the crossed PD1 arm, HC2/LC2 the TIM3 arm; knobs into holes; also called PD1TIM3_477
As for B4, the Kd with monomeric human Tim3-ECD came to 12 nM. Also, the binding result in assay [10] is on record as “binds”.

B5: Chimeric TIM3-0016 variant (0018) (antibody, human IgG1, V domains shown)
VH: QVTLKESGPGILQPSQTLSLTCSFSGFSLSTSGMSVGWIRQPSGKGLEWLAHIWLNDDVFFNPALKRRLTISKDTSNNQVFLQIASVVTADTATYYCVRANGYLYALDYWGQGISVTVSS
VL: QIVLTQSPAIMSASPGQKVTITCSASSSVNYTQWYQQKLGSSPKLWIYDAFKLAPGVPARFSGSGTGTSYSLTISSMEAEDAASYFCHQWSSYPWTFGGGTKLEIK
notes: also called Chimeric TIM3-0018
Take B5: the binding result in assay [3] is reported as “no binding”. Further, in [11], the “EC50 of IFN-g secretion/release in MLR, donors D1 + D5, with 0.1 µg/ml anti-PD1 mAb” value is 4.2 nM and the “EC50 of IFN-g secretion/release in MLR, donors D2 + D3, with 0.1 µg/ml anti-PD1 mAb” value was 3.1 nM. In assay [4], this molecule came in with an EC50 of 0.15 nM. In addition, in assay [12], the “EC50 … donors D2 + D6” value was greater than 274 nM.
